Results taken from US20240425606A1, “ANTI-IL-11RA ANTIBODIES” (Lassen Therapeutics 1, Inc., priority 2021, published 2024).

Molecular target: T1, human IL-11Rα (human, UniProt Q14626 23-363, limits assumed)
T1 construct: Protein coated on ELISA plates and used in solution for BLI; also called hIL-11Rα; hIL-11R
T1 sequence: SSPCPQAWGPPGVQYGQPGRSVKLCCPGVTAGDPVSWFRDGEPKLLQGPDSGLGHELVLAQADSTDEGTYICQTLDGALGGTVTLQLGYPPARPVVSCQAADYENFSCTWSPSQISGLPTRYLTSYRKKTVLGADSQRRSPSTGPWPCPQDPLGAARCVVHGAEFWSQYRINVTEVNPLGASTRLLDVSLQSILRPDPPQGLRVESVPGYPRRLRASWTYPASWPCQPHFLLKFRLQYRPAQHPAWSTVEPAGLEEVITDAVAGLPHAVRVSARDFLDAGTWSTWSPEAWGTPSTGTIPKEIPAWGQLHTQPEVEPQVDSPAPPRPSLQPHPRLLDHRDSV
Assay: competitive ELISA, IL-11R coated on plate; competitor: biotinylated 8E2 (0.1 µg/mL); competing against 8E2-bio
Description: Relative binding activity of the antibodies was tested by competitive ELISA using biotinylated mAbs 8E2 or TS7. Antibodies 8E2 and TS7 were biotinylated using sulfo-NHS Biotin (Thermo Fisher) per the manufacturer's instructions. IL-11R was coated onto ELISA plates (Nunc, MaxiSorp) at 2 μg/mL in PBS, and plates were blocked with 2% BSA in PBS. After washing the plate with water, antibodies to be tested were titrated across the plate in a final volume of 90 μL followed by addition of 10 μL of biotinylated 8E2 or biotinylated TS7, as indicated in Table E1 (0.1 μg/mL final concentration) to each well. Plates were incubated for 2 hours on a plate-shaker, followed by washing and addition of 100 μL/well of streptavidin-HRP (Jackson ImmunoResearch, 1/1000 dilution). After a further 1 hour incubation, plates were washed, developed with Ultra-TMB HRP substrate (Thermo Fisher), and stopped by the addition of 50 μL/well of 2 M sulfuric acid. Plates were read at 450 nm on an iD5 plate reader (Molecular Devices).

B1: mAb1 (antibody, V domains shown)
VH: EVQLLESGGGLVQPGGSLRLSCAASGFTFSWYSMTWVRQAPGKGLEWVSSIVPSGGHTQYADSVKGRFTISRDNSKNTLYLQMNSLRAEDTAVYYCAKGPDWGSFDLWGRGTLVTVSS
VL: DIQMTQSPSSLSASVGDRVTITCQASQDINNYLNWYQQKPGKAPKLLIYDASNLQTGVPSRFSGSGSGTDFTFTISSLQPEDIATYYCQQHESQSPTFGPGTKVDIK
notes: Expressed as human IgG4 (S228P EU)
IC50: > 10 µg/mL
